Here are results for one molecule from patent US20070004628A1 (SALK INSTITUTE FOR BIOLOGICAL STUDIES, published 2007).

The target of the assay is T1, p75 (endogenous, mouse) (Mus musculus, UniProt Q9Z0W1 32-427).
T1 construct: Endogenous p75 of P7 mouse cerebellum and of cerebellar granule neurons; also called p75NTR
T1 sequence: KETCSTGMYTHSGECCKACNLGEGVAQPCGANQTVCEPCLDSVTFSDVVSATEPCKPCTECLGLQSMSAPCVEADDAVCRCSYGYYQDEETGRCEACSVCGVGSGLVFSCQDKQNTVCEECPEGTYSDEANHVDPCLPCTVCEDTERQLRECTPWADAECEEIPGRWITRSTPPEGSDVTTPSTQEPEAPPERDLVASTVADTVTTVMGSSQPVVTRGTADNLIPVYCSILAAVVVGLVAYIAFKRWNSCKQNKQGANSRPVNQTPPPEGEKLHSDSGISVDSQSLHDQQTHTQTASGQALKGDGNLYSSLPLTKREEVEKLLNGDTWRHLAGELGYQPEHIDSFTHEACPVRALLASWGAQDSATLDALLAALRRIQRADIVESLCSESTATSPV
As to the kind of experiment: immunoprecipitation of P7 mouse cerebellar proteins with anti-p45 antibodies, immunoblot with anti-p75 antibodies.

B1: full-length p45 (p45-FL) (receptor)
chain: MLYNVSKGVVYSDTALQGQDGDREGMWVGAGGALAPNTSSLFPPEPPGASSNIIPVYCALLATVILGLLAYVAFKCWRSHKQRQQLAKARTVELGDPDRDQRRGDSNVFVDSPPSLEPCIPSQGPHPDLGCQLYLHIPQQQQEEVQRLLMMGEPAKGWQELAGHLGYQAEAVETMACDQMPAYTLLRNWAAQEGNRATLRVLEDALAAIGREDVVQVLSSPAESSSVV
notes: Untagged full-length p45 expressed in HEK293 cells or from transfected capped RNA in CGNs; Also used here for endogenous p45 of P7 mouse cerebellum; also called PLAIDD; NRADD
For B1, the binding result is reported as “binds”.
